Measurements from patent US20230174626A1.

Biological target: HCMV glycoprotein H (gH) on TB40 virus (Human Cytomegalovirus (HCMV), TB40 virus)
Assay: cell-based or functional assay

IC50 (µg/ml), HCMV TB40 neutralization on ARPE-19 epithelial cells: 0.89 µg/mL
IC50 (µg/ml), HCMV TB40 neutralization on MRC-5 fibroblasts: 0.46 µg/mL
Substance: mAb MSL-109 (antibody)
